Measured values from patent US20130189218A1, “PHARMACEUTICAL FORMULATIONS FOR FUMAGILLIN DERIVATIVE-PHF CONJUGATES” (Mersana Therapeutics, Inc., priority 2011, published 2013).

Assays:
Assay type in all cases: physicochemical
[1] = Solution appearance of Composition C batches
Method: Physical properties of select Composition C batches were measured as described in the Methods section.

[2] = HPSEC trace / molecular weight distribution of different Compound D loading conjugates
Method: (§1) The molecular weight distributions of Composition C conjugate, PHF and PHF-GA were measured by high performance size exclusion chromatography (HPSEC) with RI detection. Separation was carried out on a GE Healthcare Superose 6 column using 50 mM pH=7.4 phosphate 0.9% NaCl as an fluent. Dextran standards (American Polymer Standards Corporation) were used to establish a calibration curve of known molecular weight vs. retention time. Molecular weight distributions (weight average molecular weight (“Mw”), D90, D50, D10) were calculated based on the polysaccharide standard curve.
Composition C batches were analyzed by high performance size exclusion chromatography. […] Batches B and E have the additional desirable property of relatively high Compound D loading; approximately 3-fold higher than Batches C and F.

[3] = Peak molecular weight at ~3 and ~60 mg/ml (concentration dependence)
Method: as §1
Peak molecular weight values were measured for Composition C batches in solution at ˜3 mg/ml and at ˜60 mg/ml.

Question: Which “Solution Appearance” value [1] does the source give for `CO[C@H]1[C@H](C2(C)OC2CC=C(C)C)[C@]2(CC[C@H]1OC(=O)NCc1ccc(NC(=O)CCCC(=O)O)cc1)CO2` (some centres unmarked) [Compound D] here?
Answer: Very slight

Question: And the “SEC Trace” value [2]?
Answer: 2 peaks (high

Question: What about the “% Change” value ([3]; Mp at ~60 mg/ml vs ~3 mg/ml) of the same molecule?
Answer: +58%

Question: And the Mp at ~3 mg/ml ([3]; ~3 mg/ml in solution)?
Answer: 57.8 kDa

Question: And the Mp at ~60 mg/ml ([3]; ~60 mg/ml in solution)?
Answer: 91.2 kDa
